This is an account of results in the supplement of paper PMC9170038.

The test system of series [1] is MS2 coat protein. As to the kind of experiment: apparent KD of MS2 coat protein; designed switch direction (-1 OFF switch, 1 ON switch): 1; higher = weaker reporter binding. Conditions: Eterna round: R98. How it is done:
(§1)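 RNA-MaP: designed FMN/MS2 RNA switches (84 nt design region) are transcribed on-chip within common flanks and titrated with SNAP-549-labelled MS2 coat protein (about 1-3000 nM) in 100 mM Tris pH 7.5, 80 mM KCl, 4 mM MgCl2, without or with 200 uM FMN. Median apparent KD per design; activation ratio = KD,OFF / KD,ON.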

The test system of series [2] is MS2 coat protein. The experiment in a line: apparent KD of MS2 coat protein; higher = weaker reporter binding. As to conditions: Eterna round: R101. How it is done: as §1

Regarding “AAAACAUGAGGAUCACCCAUGUAUAGAACGGUUAAUAAAAGUGAGGAUAUACUAAAUUUUAUAUAGUAGAAGGCACUGGGUACU [JR_SSNG3_Sub010]”, the “apparent KD of MS2 coat protein” value is 0.0247 µM in the series with MS2 coat protein [1] (input ligand: FMN 200 uM) and 0.0171 µM in the series on MS2 coat protein [1] (input ligand: none).
As to “AAAACAUGAGGAUCACCCAUGUAUAGAUCGAUUAUUAGGAGUGAGGAUAUGCAAGUUAUAAGGAAGCAGAAGGCACAGGGAAAA [JR_SSNG3_Sub073]”, the “apparent KD of MS2 coat protein” value in the series with MS2 coat protein [1] (input ligand: FMN 200 uM) is 0.0232 µM; in the series on MS2 coat protein [1] (input ligand: none), 0.0239 µM.
As to “AAGAUACUUACAGGAUAUAGGGCAGAGGGUGCCCUAGAAGGGUGAACAUGAGGAUCACCCAUGUAUGUAUCUGAUUAGAAGGCA [Lezaraoren]”, the “apparent KD of MS2 coat protein” value worked out at 0.119 µM in the series on MS2 coat protein [1] (input ligand: FMN 200 uM) and 0.0732 µM with MS2 coat protein [1] (input ligand: none).
Take “AAGUGAAAUCAGAAGGGCUCCAGCAAAGCUGGAGCAGGAUAUGAGGAUCACCCAUGUCACCUGACGGUCGAAACGACCGUCAGG [#SharedSequence - IExNG1: 6-2] (puzzle (switch architecture): Inverted Exclusion NG 1)”: the “apparent KD of MS2 coat protein” value is 0.521 µM in the series with MS2 coat protein [2] (input ligand: FMN 200 uM) and 0.0569 µM with MS2 coat protein [2] (input ligand: none).
In the case of “ACAGGUCGUGAGAAGGCGGAAAGCACCGUCGAAAGACGGUGCAAUUAAGAUCUUCGAGGAUCACCCGAGGAUAUCACGACCUGA [#SharedSequence - IExNG2: 15] (puzzle (switch architecture): Inverted Exclusion NG 2)”, the “apparent KD of MS2 coat protein” value in the series on MS2 coat protein [2] (input ligand: FMN 200 uM) was determined as 0.654 µM; in the series with MS2 coat protein [2] (input ligand: none) it was 0.0751 µM.
For the sequence “ACAUACAUUCGAGGAUAUCGGUGAACAAAUUAACGAGAAGGCGAUAUAAUUUUUAAUCUUAUAAACAUGAGGAUCACCCAUGUA [JR_SSNG1_Sub001]”, the “apparent KD of MS2 coat protein” value with MS2 coat protein [1] (input ligand: FMN 200 uM) is 0.017 µM; in the series with MS2 coat protein [1] (input ligand: none), 0.0209 µM.
As for “AGGAGAAAUGUAGGAUAUAUAUAUAUAUAUAGGCAAAGCGUAUAUAUAUAUAUAGAAGGACAUGAGGAUCACCCAUGUUUCCCU [#Lowering the energy 12] (puzzle (switch architecture): Small Loop Exclusion NG 1)”, the “apparent KD of MS2 coat protein” value with MS2 coat protein [2] (input ligand: FMN 200 uM) came out at 0.00942 µM; in the series with MS2 coat protein [2] (input ligand: none), 0.0102 µM.
For the sequence “AGUGUCAUCGAGAAGGCCUCAAAAUGAGGAUCACCCAUGUUGUAAUAUGGGAGGAUAUCGAUGAUACAGCUACGUUUCGUAGCA [salish99_InSLSSNG1_020 #HINGE] (puzzle (switch architecture): Inverted Small Loop Same State NG 1)”, the “apparent KD of MS2 coat protein” value stood at 0.0589 µM with MS2 coat protein [2] (input ligand: FMN 200 uM) and 0.0983 µM in the series on MS2 coat protein [2] (input ligand: none).
As to “CAGUCGACCAUAACAAGGUCGACUGACUUCUGAGGAUCACCCAGAAGGCGUCACCUAAUAGGUGACGAGGAUAUGGAGUGUAAA [#SharedSequence IExNG# - 7] (puzzle (switch architecture): Inverted Exclusion NG 3)”, the figures for the “apparent KD of MS2 coat protein” value in the series on MS2 coat protein [2] (input ligand: FMN 200 uM) and in the series with MS2 coat protein [2] (input ligand: none) were 0.0927 µM and 0.032 µM, respectively.
As for “CAUAUAUGGUGAGGAUAUGCAAAGGAUCACCUUGUAGAAGGCAUCAGGGUAGAAGGUGCAAGGAUCACCUGUAAGGAUAUAUCC [pwkr2 ssNG1 DX.26]”, the “apparent KD of MS2 coat protein” value with MS2 coat protein [1] (input ligand: FMN 200 uM) was 0.412 µM; with MS2 coat protein [1] (input ligand: none), 1.63 µM.
Regarding “CCCUUUAGAAAAGGGACAUGAGGAUCACCCAUGUAGGCUGCACAGGAUAUCGAUCGGAGGCGGUACGAGAAGGGUGACGUCAUU [Zaarqu]”, the “apparent KD of MS2 coat protein” value with MS2 coat protein [1] (input ligand: FMN 200 uM) was found to be 0.064 µM; with MS2 coat protein [1] (input ligand: none), 0.0523 µM.
For the sequence “CCUGCACUUCAAGGAUAUCCAGUCGUUUCGACUGGAGAAGGUGAGGAUCACCCAUCUAGCCUGACGUUUGUCAGGCAUGCAGGU [#AddUracilToBrourdLoops 7 - Jieux - Exclusion NG1] (puzzle (switch architecture): Exclusion NG 1)”, the “apparent KD of MS2 coat protein” value in the series on MS2 coat protein [2] (input ligand: FMN 200 uM) is 0.0817 µM; in the series with MS2 coat protein [2] (input ligand: none), 0.0843 µM.
In the same order, the values of “CGCGAACAGUUUUAAAAGAGGAUCACCCAUGUGGACUCAUGGUAGGAUAUCGGGAAGGAGGAAACCGAGAAGGGCUGGUGAGCC [salish99_SSNG3_019 #HINGE] (puzzle (switch architecture): Same State NG 3)” are 0.018 µM and 0.0375 µM.
“CGCUAUGAUGGGUGUAAUAGAGCAUAGGAUAUGCUUGUACAUGAGGAUCACCCAUGUUAUAUUUUGCAGAAGGGUGCAUUUGCG [JR #DistanceFar #Hairpin #NP SLSSNG3 Sub072] (puzzle (switch architecture): Small Loop Same State NG 3)”: the “apparent KD of MS2 coat protein” value with MS2 coat protein [2] (input ligand: FMN 200 uM) worked out at 0.255 µM; in the series with MS2 coat protein [2] (input ligand: none), 0.46 µM.
“CUUACUUUGUAGAAGGGUGACAUGAGGAUCACCCAUGUGCGUCGCCUGAAAGACCAGGGUACGCCACAGGAUAUACAAAGUAAG [Titerexe] (puzzle (switch architecture): Inverted Same State NG 2)”: the results for the “apparent KD of MS2 coat protein” value in the series with MS2 coat protein [2] (input ligand: FMN 200 uM) and with MS2 coat protein [2] (input ligand: none) were 0.128 µM and 0.0284 µM, respectively.
With “GAUUACUUCACAGGAUAUAAAAUAAAGCAGAUUUUAGAAGGGUGAGCCUCGUCGACCGCGACAUGAGGAUCACCCAUGUUGUGU [Bitetiqu]”, the “apparent KD of MS2 coat protein” value in the series with MS2 coat protein [1] (input ligand: FMN 200 uM) is 0.0508 µM; in the series with MS2 coat protein [1] (input ligand: none), 0.0293 µM.
“GCAGCUAAUGCAGGAUAUCAGCACGUGUAGUGCUGAGAAGGGCACAUGAGGAUACCGACUGUGAUCAAUUAAUAUUAAUGCUGC [salish99#hingeEx3_55-58_003] (puzzle (switch architecture): Exclusion NG 1)”: the “apparent KD of MS2 coat protein” value turned out to be 0.00687 µM with MS2 coat protein [2] (input ligand: FMN 200 uM) and 0.00943 µM with MS2 coat protein [2] (input ligand: none).
“GCAGCUAAUGCAGGAUAUCAGCACGUGUAGUGCUGAGAAGGGCACAUGAGGAUACUGACUGUGAUCAAUUAAUAUUAAUGCUGC [salish99#hingeEx3_55-58_004] (puzzle (switch architecture): Exclusion NG 1)”: the results for the “apparent KD of MS2 coat protein” value with MS2 coat protein [2] (input ligand: FMN 200 uM) and in the series with MS2 coat protein [2] (input ligand: none) were 0.00919 µM and 0.0635 µM, respectively.
As to “GCGGAGGGCACAGGAUAUCGUCCUUAGUUGGUACGAGAAGGGUGGCGCUGCCACAUGAGGAUCACCCAUGUGCCCAAACUAUAG [Eresgeises]”, the “apparent KD of MS2 coat protein” value in the series on MS2 coat protein [1] (input ligand: FMN 200 uM) stood at 0.639 µM; in the series with MS2 coat protein [1] (input ligand: none), 0.211 µM.
For “GCGGCCCGGGAGAAGGACAUGAGGAUCACCCAUGUCGCCGGGCCCGGGAAACCGGGCCCGGCCAUGUAGGAUAUCCCGGGCCGC [#This is a good prank] (puzzle (switch architecture): Inverted Exclusion NG 2)”, the “apparent KD of MS2 coat protein” value with MS2 coat protein [2] (input ligand: FMN 200 uM) was 0.00514 µM; in the series with MS2 coat protein [2] (input ligand: none), 0.00459 µM.
Turning to “GCUGCUAUCGCAGGAUAUUACAUGGGAAAGAAUACAUGAGGAUCACCCAUGUAAAAGAUCGUAAAUAAGAAGGGCGAUAGCAGC [Lame State 5 - Jieux - Same State NG 2]”, the entries for the “apparent KD of MS2 coat protein” value in the series with MS2 coat protein [1] (input ligand: FMN 200 uM) and in the series on MS2 coat protein [1] (input ligand: none) were 0.353 µM and 0.329 µM, respectively.
With “GCUUGCGACGCAGGAUAUGGGUGCCUAAACACGAGGAUCACCCGUGUACAGGAAGCGAAAAGCUCUCAGAAGGGCGUCGCAGGC [United States 8 - Jieux - Same State NG 2]”, the “apparent KD of MS2 coat protein” value was 0.0172 µM in the series with MS2 coat protein [1] (input ligand: FMN 200 uM) and 0.0226 µM with MS2 coat protein [1] (input ligand: none).
Regarding “GGACUCACUUGAGGAUAUCGAGUGGAAUACACUCGAGAAGGCAGGGAAACCUGAGGAUCACCCAGGUAAGAGUCCAAUAAUAAA [Same State NG1 - A3C, U17G Submission 2C]”, the “apparent KD of MS2 coat protein” value with MS2 coat protein [1] (input ligand: FMN 200 uM) turned out to be 0.0187 µM; in the series with MS2 coat protein [1] (input ligand: none), 0.0434 µM.
With “GGACUCACUUGAGGAUAUCGAGUGGAUAACACUCGAGAAGGCAGGAAAACCUGAGGAUCACCCAGGUAAGAGUCCAAUAAUAAU [Same State NG1 - A3C, U17G Submission 3D]”, the results for the “apparent KD of MS2 coat protein” value with MS2 coat protein [1] (input ligand: FMN 200 uM) and in the series on MS2 coat protein [1] (input ligand: none) were 0.0144 µM and 0.0132 µM, respectively.
Regarding “GGAUCCAUCACAGGAUAUGCUGGACUUUGUCCAGCAGAAGGGUGAAACAUGAGGAUCACCCAUGUAAAGGAUCCUAUAUUUAAU [Denovo 26]”, the “apparent KD of MS2 coat protein” value stood at 0.0343 µM in the series on MS2 coat protein [1] (input ligand: FMN 200 uM) and 0.291 µM in the series with MS2 coat protein [1] (input ligand: none).
“GUAGCAUACCGAGGAUAUUCAUAUAAUAAAUAAACAUGAGGACCACCCAUGUGGCGAAAGCCUUGGGAGAAGGCGGAAUGCUAC [Xeonanis 20 - mod55 1]”: the “apparent KD of MS2 coat protein” value in the series on MS2 coat protein [1] (input ligand: FMN 200 uM) amounted to 0.0709 µM.
Take “GUAGCUAUCGCAGGAUAUCCUCAGGCGAAAGCCACAUGAGGAUCACCCAUGUAAUUAAAGAAAUUGGAGAAGGGCGAUAGCUAC [jl-sng2-2.38 Eli mod]”: the figures for the “apparent KD of MS2 coat protein” value in the series with MS2 coat protein [1] (input ligand: FMN 200 uM) and in the series on MS2 coat protein [1] (input ligand: none) were 0.0364 µM and 0.571 µM, respectively.
For the sequence “GUAGCUAUCGGAGGAUAUUCAUAGCGGAAACGCACAUGAGGAUCACCCAUGUGGCGAAAGCCUUGGGAGAAGGCCGAUAGCUAC [jl-sng2-2.30 Eli mod]”, the “apparent KD of MS2 coat protein” value in the series on MS2 coat protein [1] (input ligand: FMN 200 uM) came out at 0.0177 µM; in the series with MS2 coat protein [1] (input ligand: none), 0.0993 µM.
With “UGUAAUAUUAUAGGAUAUGGAUACGAUACGUAUCCAGAAGGGUGAUUAAACUAUAAUCUAUACAUGAGGAUCACCCAUGUUUAU [AtrosYaY10] (puzzle (switch architecture): Same State NG 1)”, the “apparent KD of MS2 coat protein” value with MS2 coat protein [2] (input ligand: FMN 200 uM) amounted to 0.157 µM; in the series on MS2 coat protein [2] (input ligand: none), 0.173 µM.
For the sequence “UUCACGGCGGGAAUAAGUGGUACUCAGGAUAUGGACUAGAAAUACAUGAGGAUCACCCAUGUGUUCCAGAAGGGAGGGCAUGCG [Tisorabea] (puzzle (switch architecture): Small Loop Same State NG 3)”, the results for the “apparent KD of MS2 coat protein” value with MS2 coat protein [2] (input ligand: FMN 200 uM) and with MS2 coat protein [2] (input ligand: none) were 0.0103 µM and 0.0456 µM, respectively.
In the same order, the values of “UUGAAUCGAAACAUGAGGAUCACCCAUGUGUUGUAAUUGACAUAGGAUAUGUAUAUACUUUUAUAAUAGAAGGAUGACGAUACU [S-state NG3 31] (puzzle (switch architecture): Same State NG 3)” are 0.012 µM and 0.0158 µM.
